{
  "source": "patent US8557986B2",
  "about": "“Method of producing polysaccharide derivatives” (Seikagaku Corporation, priority 2006, dated 2013)",
  "data": [
    {"experiment": "Test Example 2: passage of 1.0% (w/v) aqueous solution through 0.22 μm porous filter", "assay_type": "physicochemical", "details": "Millex-GV 0.22 μm pore diameter, room temperature, absorbance before and after filter passage", "protocol": "Each of the aqueous solutions (test solutions) was injected into a rear portion of a syringe (1 mL in volume: manufactured by TERUMO Corporation) equipped with a porous filter (Millex-GV of 0.22 μm pore diameter: manufactured by Millipore Corporation) and was pressed out with a piston at room temperature to pass through the porous filter.\nThe diclofenac-based absorbance (peak top) at about 280 nm was measured for each of the test solutions before, and after the filter passage of at least 0.5 mL. The filter passage coefficient of each test solution was expressed by a concentration of the diclofenac content in the test solution before and after the filter passage that was calculated from the change in measured absorbance.", "units": {"filter passage coefficient": "%"}, "values": [
      {"substance": "aminoethanol-diclofenac-introduced sodium hyaluronate [Example 1]", "filter passage coefficient": 95.3},
      {"substance": "aminoethanol-diclofenac-introduced sodium hyaluronate [Reference Example 3]", "filter passage coefficient": 96.9},
      {"substance": "aminoethanol-diclofenac-introduced sodium hyaluronate [Reference Example 4]", "filter passage coefficient": 11.0}
    ]},
    {"experiment": "not given", "details": "not given", "protocol": "The aminoethanol-diclofenac-introduced sodium hyaluronate prepared in Reference Examples 1 and 2 were tested by the same procedure.", "values": [
      {"substance": "aminoethanol-diclofenac-introduced sodium hyaluronate [Example 2]", "solubility in distilled water (appearance of the solution)": "homogeneously dissolved in distilled water and yielded clear and viscous aqueous solutions"},
      {"substance": "aminoethanol-diclofenac-introduced sodium hyaluronate [Example 3]", "solubility in distilled water (appearance of the solution)": "homogeneously dissolved in distilled water and yielded clear and viscous aqueous solutions"},
      {"substance": "aminoethanol-diclofenac-introduced sodium hyaluronate [Reference Example 1]", "solubility in distilled water (appearance of the solution)": "not dissolved in distilled water but yielded a white suspension"},
      {"substance": "aminoethanol-diclofenac-introduced sodium hyaluronate [Reference Example 2]", "solubility in distilled water (appearance of the solution)": "homogeneously dissolved in distilled water and yielded clear and viscous aqueous solutions"}
    ]}
  ]
}
